Measurements taken from US20230012273A1 (Boehringer Ingelheim, published 2023).
Positions count from the first letter of the chain named.

B1: Anti-SIRPα antibody KWAR23 (antibody, V domains shown)
VH: EVQLQQSGAELVKPGASVKLSCTASGFNIKDYYIHWVQQRTEQGLEWIGRIDPEDGETKYAPKFQDKATITADTSSNTAYLHLSSLTSEDTAVYYCARWGAYWGQGTLVTVSS
VL: QIVLTQSPAIMSASPGEKVTLTCSASSSVSSSYLYWYQQKPGSSPKLWIYSTSNLASGVPARFSGSGSGTSYSLTISSMEAEDAASYFCHQWSSYPRTFGAGTKLELK
B2: Antibody A (antibody, human IgG1, kappa, L234A L235A)
heavy: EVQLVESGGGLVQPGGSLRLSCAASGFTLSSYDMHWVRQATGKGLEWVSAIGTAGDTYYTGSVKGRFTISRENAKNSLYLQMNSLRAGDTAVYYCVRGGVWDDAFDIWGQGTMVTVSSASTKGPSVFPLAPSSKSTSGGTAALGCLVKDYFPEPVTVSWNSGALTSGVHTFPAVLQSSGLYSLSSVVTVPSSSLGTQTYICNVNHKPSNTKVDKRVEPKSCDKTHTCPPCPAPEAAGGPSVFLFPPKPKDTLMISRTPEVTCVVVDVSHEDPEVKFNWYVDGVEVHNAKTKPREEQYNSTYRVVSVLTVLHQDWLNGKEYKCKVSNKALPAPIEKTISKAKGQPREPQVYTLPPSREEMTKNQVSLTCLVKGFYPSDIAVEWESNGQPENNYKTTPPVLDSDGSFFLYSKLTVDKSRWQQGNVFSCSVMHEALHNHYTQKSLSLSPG
light: DIQMTQSPSSLSASVGDRVTITCRASQDINNYLAWFQQKPGKAPKSLIYTASSLHSGVPSKFSGSGSGTDFTLTISSLQPEDFATYYCQQYVSYPYTFGQGTKLEIKRTVAAPSVFIFPPSDEQLKSGTASVVCLLNNFYPREAKVQWKVDNALQSGNSQESVTEQDSKDSTYSLSSTLTLSKADYEKHKVYACEVTHQGLSSPVTKSFNRGEC
B3: Antibody A10 (antibody, human IgG1, kappa, L234A L235A)
heavy: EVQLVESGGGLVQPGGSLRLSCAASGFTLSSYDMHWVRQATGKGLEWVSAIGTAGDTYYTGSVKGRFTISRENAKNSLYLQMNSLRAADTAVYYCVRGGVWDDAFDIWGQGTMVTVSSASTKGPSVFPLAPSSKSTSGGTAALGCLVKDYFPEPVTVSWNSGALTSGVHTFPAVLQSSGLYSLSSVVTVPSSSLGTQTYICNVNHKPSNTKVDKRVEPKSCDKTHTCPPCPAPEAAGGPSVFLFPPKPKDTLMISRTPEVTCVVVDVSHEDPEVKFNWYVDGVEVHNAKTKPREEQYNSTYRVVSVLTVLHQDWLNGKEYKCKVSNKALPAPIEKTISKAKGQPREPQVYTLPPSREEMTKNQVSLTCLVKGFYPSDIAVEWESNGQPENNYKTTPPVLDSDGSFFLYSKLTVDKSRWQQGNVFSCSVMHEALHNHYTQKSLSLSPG
light: B2 light
B4: Antibody E (antibody, human IgG1, kappa, L234A L235A)
heavy: not shown
light: DIVMTQSPLSLPVTPGEPASISCKSSQSLLYSNGYNYLDWYLQRPGQSPQLLIYLGSNRASGVPDRFSGSGSGTDFTLKISRVEAEDVGVFYCMQALQTPLTFGGGTKVEIKRTVAAPSVFIFPPSDEQLKSGTASVVCLLNNFYPREAKVQWKVDNALQSGNSQESVTEQDSKDSTYSLSSTLTLSKADYEKHKVYACEVTHQGLSSPVTKSFNRGEC
B5: Antibody E22 (antibody, human IgG1, kappa, L234A L235A, V domains shown)
VH: QVQLQESGPGLVKPSETLSLTCTVSGGSIRDYYWSWIRQPPGKGLEWIGFIYYNGRTFYQSSLKSRVTISLDTSKNQFSLKMTSVTAADTAVYYCARVRAYSGIGLDGTDVWGQGTTVTVSS
VL: DIVMTQSPLSLPVTPGEPASISCRSSQSLLYSTGYTYLDWYLQRPGQSPQLLIYGGSSRASGVPDRFSGSGSGTDFTLKISRVEAEDVGVFYCGQALQTPLTFGQGTKVEIKR
B6: Antibody D (antibody, human IgG1, kappa, L234A L235A, V domains shown)
VH: EVQLVESGGGLVQPGGSLRLSCAASGFTFSSFDMHWVRQPTGKGLEWVSTIGIAGDTYFPGSVKGRFTISRENAKNSLYLQMNSLRAGDTAVYYCARGGNWDDALDIWGQGTMVTVSS
VL: DIQMTQSPSSLSASVGDRVTITCRASQDINNYLAWFQQKPGKAPKSLIYTASSLQSGVPSKFSGSGSGTDFTLTISSLQPEDFATYYCQQYNTYPYTFGQGTKLEIKR
B7: Antibody C (antibody, human IgG1, kappa, L234A L235A, V domains shown)
VH: B6 VH with F32Y, P40A, T50V, F59Y, A87V, N100S, L105F
VL: B6 VL with V15I, R18K, N92V, T93S
B8: Antibody B (antibody, human IgG1, kappa, L234A L235A, V domains shown)
VH: QVQLVQSGAEVKKPGASVKVSCKASGYTFTGNYMHWVRQAPGQGLEWMGWINPNSGGTNYAQKFQGRVTMTRDTSISTAYMELSRLRSDDTAVYYCVSGSGWYENYYYYGMDVWGQGTTVTVSS
VL: DIQMTQSPSSVSASVGDRVTITCRASQGISSWLAWYQQKPGKAPKLLIYAESSLQSGVPSRFSGSGSGTDFTLTISSLQPEDFATYYCQQANSFPLTFGGGTKVEIKR

target: T1, full-length cynomolgus SIRPα (EGM-02252) on CHO cells, clone H3A9 (cynomolgus monkey, UniProt A0A2K5VYQ9); assay: flow cytometry, CHO cells
T1 construct: whole, on cells; also called EGM-02252 Clone H3A9
T1 sequence: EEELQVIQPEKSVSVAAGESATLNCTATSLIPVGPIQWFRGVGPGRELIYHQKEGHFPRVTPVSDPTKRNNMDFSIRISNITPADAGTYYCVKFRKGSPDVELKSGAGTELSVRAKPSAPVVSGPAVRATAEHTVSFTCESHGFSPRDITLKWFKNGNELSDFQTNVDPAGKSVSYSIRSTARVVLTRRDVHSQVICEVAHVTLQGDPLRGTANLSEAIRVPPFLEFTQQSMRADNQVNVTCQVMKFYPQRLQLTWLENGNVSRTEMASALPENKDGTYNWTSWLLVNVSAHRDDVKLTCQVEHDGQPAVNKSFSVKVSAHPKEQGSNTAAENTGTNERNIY
Protocol: (§1) Antibody binding to cells expressing cynomolgus (cyno) SIRPα was evaluated by flow cytometry. CHO-K1 cells expressing full-length cyno SIRPα; derived from protein sequence accession numbers (A) EGM-02252; (B) XP_015313155; or (C) NP_001271679, are blocked with donkey IgG and incubated on ice with increasing concentrations of antibodies for 60 minutes, washed and stained with AF647-conjugated donkey F(ab′)₂ anti-human IgG secondary reagent. Cells are washed, fixed, and analyzed by flow cytometry. Median fluorescent intensity is determined and used as a measure of antibody binding.

Which EC50 does the source give for B1 here?
The EC50 was 0.9 nM.

Which EC50 does the source give for B2 here?
Its EC50 is 1.9 nM.

B3 was tested. Which EC50 did it give?
Its EC50 is 1.5 nM.

target: T2, full-length cynomolgus SIRPα (NP_001271679) on CHO cells, clone HC6 (cynomolgus monkey, UniProt A0A2K5VYQ9); assay: flow cytometry, CHO cells
T2 construct: whole, on cells; also called NP_001271679 Clone HC6
T2 sequence: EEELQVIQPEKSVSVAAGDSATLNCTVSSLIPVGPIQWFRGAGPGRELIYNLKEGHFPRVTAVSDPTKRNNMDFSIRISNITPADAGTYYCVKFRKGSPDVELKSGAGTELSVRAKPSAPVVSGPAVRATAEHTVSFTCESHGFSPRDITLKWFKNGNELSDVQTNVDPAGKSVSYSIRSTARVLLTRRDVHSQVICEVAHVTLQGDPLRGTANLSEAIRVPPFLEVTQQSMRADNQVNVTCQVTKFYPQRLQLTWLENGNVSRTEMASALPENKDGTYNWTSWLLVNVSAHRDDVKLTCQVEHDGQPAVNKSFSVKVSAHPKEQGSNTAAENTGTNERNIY
Protocol: as §1

For B1, which EC50 is on record?
The EC50 was 2 nM.

For B2, which EC50 is on record?
The EC50 was 4.5 nM.

How did the EC50 turn out when B3 was run?
The EC50 was 3.7 nM.

target: T3, full-length cynomolgus SIRPβ1v3 (XP_005568593) on CHO cells, clone 1HC6 (cynomolgus monkey); assay: flow cytometry, CHO cells
T3 construct: also called SIRPβ1v3 XP-005568593 Clone 1HC6
Protocol: Antibody binding to cells expressing full-length cynomolgus SIRPβ1 (XP_005568598) and SIRPβ1v3 (XP_005568593) is evaluated by flow cytometry. SIRPβ1- or SIRPβ1V3-expressing CHO cells are blocked with donkey IgG and incubated on ice with increasing concentrations of antibodies for 60 minutes, washed and stained with AF647-conjugated donkey F(ab′)₂ anti-human IgG secondary reagent. Cells are washed, fixed, and analyzed by flow cytometry. Median fluorescent intensity is determined and used as a measure of antibody binding.

Which EC50 does the source give for B1 here?
The EC50 was 0.4 nM.

Which EC50 does the source give for B4 here?
Its EC50 is 0.8 nM.

How did the EC50 turn out when B5 was run?
Its EC50 is 1 nM.

target: T4, full-length human SIRPαV1 D→N on Expi-CHO cells (human, UniProt P78324 31-504); assay: flow cytometry, Expi-CHO cells
T4 construct: the entry already carries the change (PDDV to PDNV)
Protocol: (§2) Expi-CHO parental cells are transduced with lentiviruses containing either full-length wild-type human SIRPαV1 allele (NP_542970.1) or full-length human SIRPαV1 with amino acid point mutations (Table 56) and sorted to achieve matching expression levels. These cells are blocked with donkey IgG and incubated on ice with increasing concentrations of antibodies for 60 minutes, washed and stained with AF647-conjugated donkey F(ab′)₂ anti-human IgG antibodies. Stained cells are washed, fixed, and analyzed by flow cytometry. Median fluorescent intensity is determined and used as a measure of antibody binding.

T4 sequence (P78324 31-504 D131N): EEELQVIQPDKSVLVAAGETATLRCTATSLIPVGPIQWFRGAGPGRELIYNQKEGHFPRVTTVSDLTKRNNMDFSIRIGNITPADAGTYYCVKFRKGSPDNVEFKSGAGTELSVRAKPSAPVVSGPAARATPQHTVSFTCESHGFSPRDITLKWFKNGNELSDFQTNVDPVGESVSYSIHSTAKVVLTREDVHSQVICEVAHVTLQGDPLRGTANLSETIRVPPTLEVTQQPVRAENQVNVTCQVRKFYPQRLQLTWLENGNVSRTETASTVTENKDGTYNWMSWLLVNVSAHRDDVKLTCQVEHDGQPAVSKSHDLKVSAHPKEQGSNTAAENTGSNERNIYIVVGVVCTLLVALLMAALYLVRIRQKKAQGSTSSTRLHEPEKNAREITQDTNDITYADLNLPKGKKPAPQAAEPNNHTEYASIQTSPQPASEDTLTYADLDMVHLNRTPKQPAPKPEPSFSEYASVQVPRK

For B1, which EC50 is on record?
The EC50 was 0.2 nM.

B4 was tested. Which EC50 did it give?
The EC50 was 0.4 nM.

Which EC50 does the source give for B5 here?
The EC50 was 0.8 nM.

B6 was tested. Which EC50 did it give?
Its EC50 is 9.6 nM.

Which EC50 does the source give for B7 here?
The EC50 was 2.7 nM.

target: T5, full-length human SIRPαV1 DD→EN on Expi-CHO cells (human, UniProt P78324 31-504); assay: flow cytometry, Expi-CHO cells
T5 construct: the entry already carries the change (PDDV to PENV)
Protocol: as §2

T5 sequence (P78324 31-504 D130E/D131N): as the sequence (P78324 31-504 D131N) above, with D100E counted along it

B1 was tested. Which EC50 did it give?
Its EC50 is 0.2 nM.

Which EC50 does the source give for B4 here?
The EC50 was 0.4 nM.

For B5, which EC50 is on record?
The EC50 was 0.6 nM.

With B6 as the binder, how does the EC50 read?
The EC50 was 6.6 nM.

Which EC50 does the source give for B7 here?
Its EC50 is 1.1 nM.

target: T6, full-length human SIRPβ1 (NP_006056.2) on cells (human, UniProt O00241 30-398); assay: flow cytometry, Expi-CHO cells
T6 construct: also called β1 WT
Protocol: These cells are blocked with donkey IgG and incubated on ice with increasing concentrations of antibodies for 60 minutes, washed and stained with AF647-conjugated donkey F(ab′)₂ anti-human IgG antibodies. Stained cells are washed, fixed, and analyzed by flow cytometry. Median fluorescent intensity is determined and used as a measure of antibody binding.

T6 sequence (O00241 30-398): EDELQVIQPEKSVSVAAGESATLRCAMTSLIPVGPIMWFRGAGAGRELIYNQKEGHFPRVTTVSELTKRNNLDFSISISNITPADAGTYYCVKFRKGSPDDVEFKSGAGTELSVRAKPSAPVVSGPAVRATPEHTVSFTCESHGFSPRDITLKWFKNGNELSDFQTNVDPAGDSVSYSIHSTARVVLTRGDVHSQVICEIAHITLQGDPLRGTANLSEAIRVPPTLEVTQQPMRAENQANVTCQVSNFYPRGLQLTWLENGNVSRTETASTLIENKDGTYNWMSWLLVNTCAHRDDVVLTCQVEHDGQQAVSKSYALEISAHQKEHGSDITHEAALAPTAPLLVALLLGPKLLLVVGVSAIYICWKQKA

With B1 as the binder, how does the EC50 read?
Its EC50 is 0.2 nM.

With B6 as the binder, how does the EC50 read?
The EC50 was 0.2 nM.

With B2 as the binder, how does the EC50 read?
The EC50 was 1.6 nM.

How did the EC50 turn out when B3 was run?
Its EC50 is 1.6 nM.

How did the EC50 turn out when B7 was run?
The EC50 was 0.2 nM.

target: T7, full-length human SIRPβL (NP_001129316.1) on cells (human, UniProt Q5TFQ8 30-398); assay: flow cytometry, Expi-CHO cells
T7 construct: one molecule for U937 SIRPα-KO transfectants (NP_001129316.1) and Expi-CHO transfectants (Q5TFQ8); also called SIRPβ1v3; βL WT
Outline: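 Lentivirus-transduced Expi-CHO cells expressing wild-type or single point-mutant SIRPβL, sorted to matched expression, blocked with donkey IgG and incubated on ice 60 min with increasing antibody concentrations. Detection with AF647 anti-human IgG F(ab′)₂ after washing and fixation; median fluorescence intensity taken as binding.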

T7 sequence (Q5TFQ8 30-398): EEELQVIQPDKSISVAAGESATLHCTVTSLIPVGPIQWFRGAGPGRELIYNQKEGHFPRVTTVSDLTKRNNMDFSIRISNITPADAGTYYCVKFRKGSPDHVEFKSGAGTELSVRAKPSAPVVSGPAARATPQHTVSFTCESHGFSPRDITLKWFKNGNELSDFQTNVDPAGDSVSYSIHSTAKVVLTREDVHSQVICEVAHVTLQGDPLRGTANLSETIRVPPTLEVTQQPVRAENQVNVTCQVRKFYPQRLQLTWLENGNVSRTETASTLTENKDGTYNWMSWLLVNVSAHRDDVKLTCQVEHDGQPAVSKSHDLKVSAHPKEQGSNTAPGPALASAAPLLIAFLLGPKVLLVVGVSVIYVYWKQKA

B1 was tested. Which EC50 did it give?
The EC50 was 1 nM.

B4 was tested. Which EC50 did it give?
The EC50 was 1 nM.

With B5 as the binder, how does the EC50 read?
The EC50 was 1.2 nM.

target: T8, full-length human SIRPαV1 (NP_542970.1) on cells (human, UniProt P78324 31-504); assay: flow cytometry, U-937 cells (endogenous V1)
T8 construct: one molecule for CHO-K1 and Expi-CHO transfectants (NP_542970.1) and for endogenous V1 on U-937 cells and on CD14+ monocytes of V1/V1 donors; also called CHO-hSIRPαV1; αV1 WT
Protocol: Antibody binding to human monocytic cell lines homozygous for the V1-allele (U-937) or the V2-allele (THP-1) of SIRPα is assessed. U-937 or THP-1 cells are blocked with donkey IgG and incubated on ice with increasing concentrations of antibodies for 60 minutes, washed and stained with AF647-conjugated donkey F(ab′)₂ anti-human IgG secondary reagent. Cells are washed, fixed, and analyzed by flow cytometry. Median fluorescent intensity is determined and used as a measure of antibody binding.

T8 sequence (P78324 31-504): as the sequence (P78324 31-504 D131N) above, with N101D counted along it

Which EC50 does the source give for B1 here?
Its EC50 is 0.5 nM.

How did the EC50 turn out when B4 was run?
The EC50 was 0.5 nM.

How did the EC50 turn out when B6 was run?
Its EC50 is 0.5 nM.

With B7 as the binder, how does the EC50 read?
Its EC50 is 0.6 nM.

For B8, which EC50 is on record?
Its EC50 is 21.1 nM.
